In patent EP1019524B1:

Target: HeLa cell PP1α (cellular PP1α in S10 fractions of HeLa cells) (human) (UniProt P62136)
Test: cell-based or functional assay

Sequence of HeLa cell PP1α (cellular PP1α in S10 fractions of HeLa cells) (human) (P62136 2-330): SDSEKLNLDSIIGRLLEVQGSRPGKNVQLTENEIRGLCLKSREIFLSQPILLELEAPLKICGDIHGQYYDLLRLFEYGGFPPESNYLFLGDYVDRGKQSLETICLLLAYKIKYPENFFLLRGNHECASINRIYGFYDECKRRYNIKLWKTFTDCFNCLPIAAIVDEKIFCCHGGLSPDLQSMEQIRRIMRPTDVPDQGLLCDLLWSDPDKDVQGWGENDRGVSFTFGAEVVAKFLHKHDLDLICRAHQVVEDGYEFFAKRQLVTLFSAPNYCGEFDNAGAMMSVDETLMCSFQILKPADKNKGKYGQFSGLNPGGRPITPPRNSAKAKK

Substance: γ134.5 protein of HSV-1(F), from lysates of HSV-1(F) infected cells (from UniProt P36313 1-248)
- 32P-phosphorylase phosphatase activity of HSV-1(F)-infected cells against mock-infected cells (fold of mock-infected cells): 0.5
- eIF-2(α32P) phosphatase activity of S10 fractions of wild type infected HeLa cells against mock-infected cells: 3000 fold

Substance: γ134.5-MyD116 chimeric protein expressed by recombinant virus R8300 (from UniProt P36313 1-175; P17564 540-657)
- eIF-2(α32P) phosphatase activity of S10 fractions of R8300 infected HeLa cells against mock-infected cells: 50 fold

Substance: protein phosphatase Inhibitor 2
- 50% reduction in the rate of dephosphorylation of eIF-2(α32P) by the S10 fraction from R8300 virus-infected cells: 120 µg/mL
- 50% reduction in the rate of dephosphorylation of eIF-2(α32P) by the S10 fraction from wild-type virus-infected cells: 90 µg/mL
